From a protein production outcome set (Wang et al. 2014)

Assay: label from the status in PepcDB records

## MGFLQPRLPDIDLAEWSQGSRSQKIRPMAQHWAEVGFGTPVLLHLFYVAKILLYVLVGWLIVLTTKGIDGFTDAAAWYAEPIVFEKVVLYTMLFEVIGLGCGFGPLNNRFFPPMGSILYWMRFGTIRLPPWPDRVPWTRGTKRKPVDVALYALLVMMLLSALFTDGAGPIPELGTTVGLLPAWQIVLILLLLGVLGLRDKVIFLAARGEVYATLTVTFLFGRLNGIDMIVAAKLVFLVIWIGAATSKLNRHFPFVISTMMSNNPLFRPRFIKRMFFKKFPGDLRPGLLSRIVAHVSTVIEMCVPVVLFVAHGGWPTVVAATIMVCFHLGILTAIPMGVPLEWNVFMIFGVLSLFVGHACLGLADVKNPVPLAILIAVVAGIVIAGNVFPRKISFLAAMRYYAGNWDTTLWCIKPSAEDKINRGIVAIASMPAAQLERFYGKDRAQIPMYLGYAFRAMNSHGRALFTLAHRAMAGHDEDDYVITDGERVCSTAVGWNFGDGHLHNEQLIAAMQQRCGFQPGEVRVVLLDAQPIHRQTQEYRLVDAATGEFERGYVRVADMVNRQPWDDDVPVHVLPG
  protein production: failed

## MLKERLKAFFSADSVFTLIFALFFLTSFKKPLTQVLLIVLMVFLFFRCYFQASLKETFAINHLKTMSFKWLTLAFLGVFLSIFPNMFNMHDSQTFRYNLFALNMSLTYACGALCLLFASCLRIKLNQKILFYSMAVANFINGLLSLVQKIYFNMPRAQGFSTVKEYVVLVSVSILGCYIYALYSHNQKEKLFFTLSVFVGFLVVILSATRSATIAFVITFLILSCFILYAKKSLKPLGYMVVVSLILSALYVGSNALEKKGAIEQSRVQNQSFEEDLKRYAKKDADSSIGWRLERWKEALTVLRLRPFFGMAASEKCQRLEEILSLSKSYRAKDLILCYERYDNQIIHILATRGIIGFLIWLFFLLVIVKIFWSGIKQNSLISFFILMTLAFYLIFGIGFDPFDFFITGSFFVGMIMMAVFLKKDKSAF
  protein production: failed

## MNQVVEFLKIFIPLFIVIDPFGSLVLFTSMTYNFNESEKLRATKDAVFYGGIILVLFALAGEYIIYFFGISIEALEMAGGIILLLMAVEMIMEGNRPKSSGSEIVDYDIGIVPFATPMLAGPGAISLVIILMKGPIIAKIYTIISIAIIFAMVYIFFKWSSVVSKFIGAKVMKAISRIFGLLLAGFAIQYFIDAIVALSLLK
  protein production: failed

## TEDTFWKDETDFNLALTSCYTPLKNALNGGYYGTRGVMLRIARADEVDFRNDISDVYTVNRFTNSNTNSLTQGMFYQFYNALYRTNSIMQKLEEKKEQFSTDFQNSVKGECLFIRGFYLFQLAKEFKDAPLRLTASQSPSTFPLAKSSQADIWAQAKEDLKTAASLLPITNKIGKPTQGAAYAALGKIYVYEENWQEAINVLEPLTQNPYTYKLVEDFNWNFDDTHENNAESIFELLIEDVGGTDLWGDGENINSTQSNTRPKEYAAAEVGGWYEANPTQQIMDIFWKEKDKDGNFDYRARCSVAWDYEGCTYYQRPFREVFAQDKWKTYWILKYQNWKTQKDEPAPPKSFINERAIRYADVLLMLAEAYMNKGALDTSIGYINQIRRRANLNDYSGPITKEGVFEDLVHQRAIEFFVEGERFYDLRRWGLLEQTLKTCDDTRYKNYQTGKSDNINKFNYFPIPAKELDTNPLCTPSEGW
  protein production: not failed

## MSDLVRVERKGRVTTVILNRPASRNAVNGPTAAALCAAFEQFDRDDAASVAVLWGAGGTFCAGADLKAFGTPEANSVHRTGPGPMGPSRMMLSKPVIAAVSGYAVAGGLELALWCDLRVAEEDAVFGVFCRRWGVPLIDGGTVRLPRLIGHSRAMDMILTGRGVPADEALAMGLANRVVPKGQARQAAEELAAQLAALPQQCLRSDRLSALHQWGLPESAALDLEFASIARVAGEALEGARRFAAGAGRHGAPAPRAEQGDTL
  protein production: not failed

## MASVSVSHLILFIASMAIAASVAGVFTSSIGELSNAVSEQGLDVSSDVRTDVEIISDSGSDTIYDSGANTITVHVKNTGSETLAPVPGQVDVFVDGTFASDYTVTLEPNGGNSWRPGEVVRIDINDNLSGGDHRLKLIVNGDEEVFEFNT
  protein production: failed

## MNIWIRGGTSDANTISKEIKRNFKDSFLILTTTTDFGGKIAENFADFVISEKMNYDNLKKTLVNKKIDVFIDATHPFATHASETGMKISKELNIPYIRYERPVEEFKDVFYVENFEEAAKLALKISKKNIFYMSGIKNLKTVSEIIPIEKLIVRILPTSVPEALKILPSKNIVAMQGVFSENLNKDLITDYNCDVIITKDSGKSGGLYEKVSGAVLAGAKPIIIKRPEINYPLKFEKIDELVNYLKN
  protein production: failed

## MITSNLFDLRRWRANMSAMRFFALTSAALPLALMLLTSSFPAAAAEKSAAATKKDVIVEQADANNSPKQHLDQLFSQLKRERDPEKASGIANEIRMEWNDSGSATVNLLMQWADKAIEEKRNPAALDFLDEAIALKPDYAESWNRRATLNFVMGNYRKSMSDIERVLDLEPRHFGALSGMAAILSNSGNDQLTLKAWERFLDIYPAERTAQEQANTLAEKLAGNRT
  protein production: failed

## AIASEVSCKKRDDYLEWPEYFMAVAFLSAQRSKDPNSQVGACIVNSENKIVGIGYNGMPNGCSDDVLPWRRTAENKLDTKYPYVCHAELNAIMNKNLTDVKGCSMYVALFPCNECAKLIIQAGIKEVIFMSDKYHDSDEATAARLLFNMAGVTFRKFIPKCSKIVIDFDSINSRPSQKLQ
  protein production: failed

## MRKNDIADISPRDPMLALVLLTRLPLPALPEAAFARQAAAVWAFPLAGLAVGALAWATGALALAAGLAPVAVAGLMLVVLVMTTGGMHEDGLADTADGLWGGFTPERRLEIMKDSHIGTYGVLALILSQGLRLAALSALVAGGALGAAVAAAVWSRALMPVLMAALPNARGTGLSQSVGRPTPQAVTLGLGLAAVLALLLAGWAVLIPALLAVLSVLGLAALARAKIGGQTGDILGAAQQLAEITCLLALSAAL
  protein production: failed

## MKAALLDQVARVGKALANGRRLQILDLLAQGERAVEAIATATGMNLTTASANLQALKSGGLVEARREGTRQYYRIAGEDVARLFALVQVVADEHLEHHHHHH
  protein production: not failed

## MASQQEKKQLDERAKKGETVVPGGTGGKSFEAQQHLAEGRSRGGQTRKEQLGTEGYQQMGRKGGLSTGDKPGGEHAEEEGVEIDESKFRTKT
  protein production: failed

## MTVVVEFLGTGGAHSEDLGSSSARISLPNSQNMLIDFGPDTYFSVNTRKLQFDAIFITHAHLDHVGGLERLFFSVAFKKQRLIKLYVPVSLVTRLHQIFGMAGSQVAEGGKNFWDCFQLIPITDYFYFSGYRFNVFPVRHHFPGEAFGLALPGCFVYTGDTRPIPEQLVAHAGRGELIFHDATTSSNPAHSALDDLKREYALHDVLDRLVLYHFDSAVERELAETQGWKTVRLGVTYQFGCRHVCSGSMCSNAELSSLGTNKALHNERGTKLPRPSIKKDEFV
  protein production: failed

## MSFVLWLVGKKCIVDVGTNGKNSWKVGGKDGVACRDHSGFRLEKLGLFCWWKLQKDGCGQKLNRRKDHRAFPLPSVVNERPRKLND
  protein production: failed

## PMNGKEKAASYDKVVDVDVKLGQVSVKNPKGTAHEMPKTFTFDAVYDWNAKQFELYDETFRPLVDSVLQGFNGTIFAYGQTGTGKTYTMEGIRGDPEKRGVIPNSFDHIFTHISRSQNQQYLVRASYLEIYQEEIRDLLSKDQTKRLELKERPDTGVYVKDLSSFVTKSVKEIEHVMNVGNQNRSVGATNMNEHSSRSHAIFVITIECSEVGLDGENHIRVGKLNLVDLAGSERQAKTGAQGERLKEATKINLSLSALGNVISALVDGKSTHIPYRDSKLTRLLQDSLGGNAKTVMVANVGPASYNVEETLTTLRYANRAKNIKNKPRVNEDPKDAL
  protein production: failed

## MVTQNKLKKLVLGLSLIAASSAAMATTDTAKPNILAIWGDDIGPFNISAYNRGIMGYKTPNIDRIANEGIIFTDSYGDQSCTAGRAGFITGQHPMRTGLTKVGLPGAKEGLNKKDPTIAELLKPHGYMTGQFGKNHLGDQDEHLPTNHGFDEFFGNLYHLNAEDEPEHPDYPKDPAFKKRFGPRGAIHSFADGKITDTGPVTKKRMETIDEEFLGAALKFIDKAHAAKKPFFVWFNSTRMHVWTRLKPESDGVTGQGLYADGMVEHDGHVGQLLDKIDKLGIAENTIIMYTTDNGAELALWPDGGYTPFRGEKNTNWEGGYRVPMMVKWAGKIKPNQVSNEMISLIDWMPTILAVAGDTNIKSKLKKGTNVGGTKFKVHLDGYNFLPHFLDTTKEGPRKEFIYSSDTGDIVGLRYEDYKFVFKEQRAHGLEVWQNPWTTLRAPKIFNLRMDPYERMDHESEGYGQWWAEHMFLMAPAMMKVAQFKATFKEFPQRQKPGSFVP
  protein production: failed

## MDDVVEELLRIVVESLQYEEGNLNEAVDLAINFSTKNSIFFDQLLSLSTYCGSEGSYELAYVFAKTTANLSTGSEKAVAHHNAGTASYFLNLPMEAEEHYKLALQADPKHVNTHSNYGLLLSDMGRRDEAEQQYKLALKLDPKHVNTHYNYGILLYDMRRLDEAGEQYKLALESEPKHVKTHYNYGNLLSDMGSLDEAEEQYKLALESEPNDADIHYNYGLLLYNMESLDEAEEQYKLALESEPNDASTHSNYGILLSDMGRRDEAEEQYKLALESDPKHVNTHYNYGNLLSDMGRLDEAEEQYKLALESDPKHVKTHYNYGNLLSDMGRLDEAEEQYKLALESDPNDASIHSNYGILLSDMGRHEEAEEQYKLALETDPNDADIHYNYGNLLKRMGRLDEVEKQYILALEADPKHVNTHYNYGKLLEQMGRLDEAEKQYKIAIGIDPKMPNSHGAYGLLLFFQDLEEEAIKETEVASRLCRENGDKVKEHLSLAWLYEKFANKYYNLKDYKKSGEYAEISGDEYIEAGKQAGESFKDTSLTKGYTLKGRAKIRKLEIKTPFYKDIIKRIWNKESYEIEKFTKIINCIKDASICYEKAAKASPKDNQLCNACSISMSCLSEMLDYMFAVIKQKKTPELEDKLKNWNEKLSIAKGAYQEHSKGELFIESLYKLMGCIQNLDKYKKYGTREYGRAFEECRKELTEIANNIEGPIQKIIENVTKKMDVCRLKQLPYAGTETGYIPQPNKLSQFLKWILDPKRIGIGVFGIIITVIVNHYNEYLFSLIKRTVTMLLSKI
  protein production: failed

## SDNLSSEEIQQRAHQITDESLESTRRILGLAIESQDAGIKTITMLDEQKEQLNRIEEGLDQINKDMRETEKTLTELNKCCGLCVCPCNRTKNFESGKAYKTTWGDGGENSPCNVVSKQPGPVTNGQLQQPTTGAASGGYIKRITNDAREDEMEENLTQVGSILGNLKDMALNIGNEIDAQNPQIKRITDKADTNRDRIDIANARAKKLIDS
  protein production: not failed

## LEAVAPERPRCAYCSAEASKRCSRCQNEWYCCRECQVKHWEKHGKTC
  protein production: not failed

## MAFAPRYSSLIPCALALAASLAGTPDGARAQAPDGPKHPLEKPLAHPPAPPEKLPRVPTDRTKGLDFLFGALKAAPDETSAKHVEGRIWALWSQTTSDTTALLMARSKVAMDAKQFDVALKLLDAVVKLKPDYVEGWNRRATIYYLQNDYMHSLEDIEQVLAREPRHFGALAGLGMIMQELGDDKRALDAFRRALALNPHLDKVPDLVKTLSEKVEGRDI
  protein production: failed

## MLKILKRIVQDVTAASDLKEALGILVQRINTAINAEAVSVYLIDNKNAEYVLIATEGLNKQAEFRVRIALDCGLIGLIGRREEPINIENAPSHPDFYHNPLIGEDHLNAFLGVPIIQHRKLYGVLVVQQLEQRYFDDAEESFLITLAAQLGGIIAHAEATGELAELTQ
  protein production: failed

## MTHLKIFLLLIVCALSVLDGKAQTGIALTDELNGKRIGVIGDSYVRNHKEPFENTWHYKFAKKHGMEYFNYGKNGNSIAYSSPRWGKAMYLRYAEMADSLDYVIVIGGHNDAFKLDSIGGIDNFKDKMEILCKGLVEKYPTAKIFFFTRWNCKNFKGSDSEKVVDAMIEVCGNYSIPIFDCARKGSIYADNDTFRRIYFQKSKNNTDTAHLNSKGHDRFLKVAESFLLQYLEHHHHHH
  protein production: failed
